# Test results published in patent US20250034248A1 (ALBERT EINSTEIN COLLEGE OF MEDICINE, published 2025).
# Like-named read-outs stand apart in the source and are kept apart here.
# What was measured:
# human Tim-3 protein [1] = target: T1, human Tim-3 protein (human, UniProt Q8TDQ0 22-202, limits assumed); test: Surface plasmon resonance
# [2] = target: T2, mouse Tim-3 expressed on cell lines (mouse, UniProt Q8VIM0 20-281); test: FACS on cell lines expressing mouse Tim-3
# T2 construct: whole, on cells
# human Tim-3 protein [3] = target: T1, human Tim-3 protein; test: surface plasmon resonance
# human Tim-3 protein [4] = target: T1, human Tim-3 protein; test: surface plasmon resonance; remark: listed apart in the source
Kd (human Tim-3 protein [1]) [nM],binding result [2],koff (human Tim-3 protein [3]) [s⁻¹],kon (human Tim-3 protein [3]) [M⁻¹ s⁻¹],koff (human Tim-3 protein [4]) [s⁻¹],kon (human Tim-3 protein [4]) [M⁻¹ s⁻¹],Binder
0.13,no binding,2.35e-05,187000,,,"mAb 50B5 (antibody, V domains shown, Mouse hybridoma antibody, IgG1 with kappa chain) VH: EVQLQQSGPELVKPGASMKISCKASGYSFTGYTINWVKQSHGKNLEWIGLFNPYNGGTTFNQKFKGKATLTVDKSSSTAYMELLSLTSEDSAVYYCARRYYGYDAMDYWGQGTSVTVSS VL: NIMMTQSPSSLAVSAGEKVTMSCKSSQSVLYSSNQKNHLAWYQQKPGQSPKLLIYWASTRESGVPDRFTGSGSGTDFTLTISSVQAEDLAVYYCHQYLSSYTFGGGTKLEIK"
0.32,,,,0.00029,910000,"mAb 15B4 (antibody, V domains shown, Mouse hybridoma antibody, IgG1 with kappa chain) VH: EVQLQQSGAEVVRPGALVKLSCKASGFNIKDYYMHWVRQRPEQGLEWIGWIDPENDNTIYDPKFQDRASITADTSSNTAYLQLSSLTSEDTAVYYCARDFGYVAWLVYWGQGTLVTVSA VL: DIVMTQSQEFMSTSVGDRVSITCKASQNVDTAVAWYQQKPGQSPKLLIYSASNRYTGVPDRFTGTGSGTDFTLTINNMQSEDLADYFCQQYSSYPTFGGRTKLEIKR"
